Measured values published in IntAct's records for PubMed 15530371.

Target: T1, cdkn3_human CDKN3 (UniProt Q16667)
T1 sequence: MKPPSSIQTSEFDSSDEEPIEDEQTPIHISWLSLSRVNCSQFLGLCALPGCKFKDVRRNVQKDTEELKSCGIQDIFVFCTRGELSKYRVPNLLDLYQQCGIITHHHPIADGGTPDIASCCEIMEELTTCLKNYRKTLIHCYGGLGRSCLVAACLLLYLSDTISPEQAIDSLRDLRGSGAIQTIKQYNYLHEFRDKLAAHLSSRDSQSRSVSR

## Cyclin-dependent kinase 2 (Homo sapiens) (from UniProt P24941) K237V
  effect of a mutation on the interaction: disrupting interaction
